Test results published in patent US7001748.

Legend:
[1] = biological target: T1, acyl-ACP4(4) adduct 4a ((2S,3R)-diketide on ACP4(4)), Q03132
T1 chain: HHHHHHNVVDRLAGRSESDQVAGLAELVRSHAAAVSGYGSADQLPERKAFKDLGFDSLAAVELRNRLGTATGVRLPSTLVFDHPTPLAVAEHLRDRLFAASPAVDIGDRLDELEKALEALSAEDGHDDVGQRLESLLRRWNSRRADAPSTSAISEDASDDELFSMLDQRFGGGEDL

[2] = biological target: T2, acyl-ACP4(4) adduct 4c ((2S,3S)-diketide on ACP4(4)), Q03132
T2 chain: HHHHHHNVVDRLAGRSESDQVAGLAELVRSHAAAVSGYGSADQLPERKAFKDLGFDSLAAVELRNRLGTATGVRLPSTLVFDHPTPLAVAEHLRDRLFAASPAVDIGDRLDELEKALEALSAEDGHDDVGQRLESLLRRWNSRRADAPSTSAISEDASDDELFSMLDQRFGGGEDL

[3] = biological target: T3, acyl-ACP4(4) adduct 4d ((2R,3R)-diketide on ACP4(4)), Q03132
T3 chain: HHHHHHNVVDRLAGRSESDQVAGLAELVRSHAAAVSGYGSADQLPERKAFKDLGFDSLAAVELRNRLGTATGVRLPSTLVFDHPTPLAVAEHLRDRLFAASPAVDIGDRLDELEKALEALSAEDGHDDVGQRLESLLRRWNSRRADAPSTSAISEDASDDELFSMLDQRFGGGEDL

[4] = biological target: T4, acyl-ACP4(4) adduct 4b ((2R,3S)-diketide on ACP4(4)), Q03132
T4 chain: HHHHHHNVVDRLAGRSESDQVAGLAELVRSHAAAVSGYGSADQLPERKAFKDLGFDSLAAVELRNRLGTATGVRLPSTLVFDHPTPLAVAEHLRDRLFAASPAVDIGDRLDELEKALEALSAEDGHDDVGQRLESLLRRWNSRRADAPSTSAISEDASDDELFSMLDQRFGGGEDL

B1: (5)M2+TE (N-ERL-M2+TE; plasmid pRSG64) (protein)
chain: MSGDNGMTEEKLRRYLKRTVTELDSVTARLREVEHRAGEIAIVGMACRLPGEVDSPERLWELITSGRDSAAEVPDDRGWVPDELMASDAAGTRAHGNFMAGAGDFDAAFFGISPREALAMDPQQRQALETTWEALESAGIPPETLRGSDTGVFVGMSHQGYATGRPRPEDGVDGYLLTGNTASVASGRIAYVLGLEGPALTVDTACSSSLVALHTACGSLRDGDCGLAVAGGVSVMAGPEVFTEFSRQGALSPDGRCKPFSDEADGFGLGEGSAFVVLQRLSDARREGRRVLGVVAGSAVNQDGASNGLSAPSGVAQQRVIRRAWARAGITGADVAVVEAHGTGTRLGDPVEASALLATYGKSRGSSGPVLLGSVKSNIGHAQAAAGVAGVIKVLLGLERGVVPPMLCRGERSGLIDWSSGEIELADGVREWSPAADGVRRAGVSAFGVSGTNAHVIIAEPPEPEPVPQPRRMLPATGVVPVVLSARTGAALRAQAGRLADHLAAHPGIAPADVSWTMARARQHFEERAAVLAADTAEAVHRLRAVADGAVVPGVVTGSASDGGSVFVFPGQGAQWEGMARELLPVPVFAESIAECDAVLSEVAGFSVSEVLEPRPDAPSLERVDVVQPVLFAVMVSLARLWRACGAVPSAVIGHSQGEIAAAVVAGALSLEDGMRVVARRSRAVRAVAGRGSMLSVRGGRSDVEKLLADDSWTGRLEVAAVNGPDAVVVAGDAQAAREFLEYCEGVGIRARAIPVDYASHTAHVEPVRDELVQALAGITPRRAEVPFFSTLTGDFLDGTELDAGYWYRNLRHPVEFHSAVQALTDQGYATFIEVSPHPVLASSVQETLDDAESDAAVLGTLERDAGDADRFLTALADAHTRGVAVDWEAVLGRAGLVDLPGYPFQGKRFWLLPDRTTPRDELDGWFYRVDWTEVPRSEPAALRGRWLVVVPEGHEEDGWTVEVRSALAEAGAEPEVTRGVGGLVGDCAGVVSLLALEGDGAVQTLVLVRELDAEGIDAPLWTVTFGAVDAGSPVARPDQAKLWGLGQVASLERGPRWTGLVDLPHMPDPELRGRLTAVLAGSEDQVAVRADAVRARRLSPAHVTATSEYAVPGGTILVTGGTAGLGAEVARWLAGRGAEHLALVSRRGPDTEGVGDLTAELTRLGARVSVHACDVSSREPVRELVHGLIEQGDVVRGVVHAAGLPQQVAINDMDEAAFDEVVAAKAGGAVHLDELCSDAELFLLFSSGAGVWGSARQGAYAAGNAFLDAFARHRRGRGLPATSVAWGLWAAGGMTGDEEAVSFLRERGVRAMPVPRALAALDRVLASGETAVVVTDVDWPAFAESYTAARPRPLLDRIVTTAPSERAGEPETESLRDRLAGLPRAERTAELVRLVRTSTATVLGHDDPKAVRATTPFKELGFDSLAAVRLRNLLNAATGLRLPSTLVFDHPNASAVAGFLDICCAGTAAISGPHEFTRLAGALRGIAPVRAVPQPGYEEGEPLPSSMAAVAAVQADAVIRTQGDKPFVVAGHSAGALMAYALATELLDRGHPPRGVVLIDVYPPGHQDAMNAWLEELTATLFDRETVRMDDTRLTALGAYDRLTGQWRPRETGLPTLLVSAGEPMGPWPDDSWKPTWPFEHDTVAVPGDHFTMVQEHADAIARHIDAWHHHHHH
diketide incorporation from acyl-ACP (triketide lactone formation) [1]: Both 4a and 4b were accepted and extended by all three modules
diketide incorporation from acyl-ACP (triketide lactone formation) [2]: 4c and 4d were also substrates for the three modules
diketide incorporation from acyl-ACP (triketide lactone formation) [3]: 4c and 4d were also substrates for the three modules
diketide incorporation from acyl-ACP (triketide lactone formation) [4]: Both 4a and 4b were accepted and extended by all three modules

B2: (5)M3+TE (derivative of M3+TE where the natural N-terminal linker has been replaced with the N-terminal linker of module 5 of DEBS; plasmid pST132) (protein)
chain: MSGDNGMTEEKLRRYLKRTVTELDSVTARLREVEHRAGEPIAIVSMACRLPGGVNTPQRLWELLREGGETLSGFPTDRGWDLARLHHPDPDNPGTSYVDKGGFLDDAAGFDAEFFGVSPREAAAMDPQQRLLLETSWELVENAGIDPHSLRGTATGVFLGVAKFGYGEDTAAAEDVEGYSVTGVAPAVASGRISYTMGLEGPSISVDTACSSSLVALHLAVESLRKGESSMAVVGGAAVMATPGVFVDFSRQRALAADGRSKAFGAGADGFGFSEGVTLVLLERLSEARRNGHEVLAVVRGSALNQDGASNGLSAPSGPAQRRVIRQALESCGLEPGDVDAVEAHGTGTALGDPIEANALLDTYGRDRDADRPLWLGSVKSNIGHTQAAAGVTGLLKVVLALRNGELPATLHVEEPTPHVDWSSGGVALLAGNQPWRRGERTRRARVSAFGISGTNAHVIVEEAPEREHRETTAHDGRPVPLVVSARTTAALRAQAAQIAELLERPDADLAGVGLGLATTRARHEHRAAVVASTREEAVRGLREIAAGAATADAVVEGVTEVDGRNVVFLFPGQGSQWAGMGAELLSSSPVFAGKIRACDESMAPMQDWKVSDVLRQAPGAPGLDRVDVVQPVLFAVMVSLAELWRSYGVEPAAVVGHSQGEIAAAHVAGALTLEDAAKLVVGRSRLMRSLSGEGGMAAVALGEAAVRERLRPWQDRLSVAAVNGPRSVVVSGEPGALRAFSEDCAAEGIRVRDIDVDYASHSPQIERVREELLETTGDIAPRPARVTFHSTVESRSMDGTELDARYWYRNLRETVRFADAVTRLAESGYDAFIEVSPHPVVVQAVEEAVEEADGAEDAVVVGSLHRDGGDLSAFLRSMATAHVSGVDIRWDVALPGAAPFALPTYPFQRKRYWLQPAAPAAASDELAYRVSWTPIEKPESGNLDGDWLVVTPLISPEWTEMLCEAINANGGRALRCEVDTSASRTEMAQAVAQAGTGFRGVLSLLSSDESACRPGVPAGAVGLLTLVQALGDAGVDAPVWCLTQGAVRTPADDDLARPAQTTAHGFAQVAGLELPGRWGGVVDLPESVDDAALRLLVAVLRGGGRAEDHLAVRDGRLHGRRVVRASLPQSGSRSWTPHGTVLVTGAASPVGDQLVRWLADRGAERLVLAGACPGDDLLAAVEEAGASAVVCAQDAAALREALGDEPVTALVHAGTLTNFGSISEVAPEEFAETIAAKTALLAVLDEVLGDRAVEREVYCSSVAGIWGGAGMAAYAAGSAYLDALAEHHRARGRSCTSVAWTPWALPGGAVDDGYLRERGLRSLSADRAMRTWERVLAAGPVSVAVADVDWPVLSEGFAATRPTALFAELAGRGGQAEAEPDSGPTGEPAQRLAGLSPDEQQENLLELVANAVAEVLGHESAAEINVRRAFSELGLDSLNAMALRKRLSASTGLRLPASLVFDHPTVTALAQHLRARLDSGTPAREASSALRDGYRQAGVSGRVRSYLDLLAGLSDFREHFDGSDGFSLDLVDMADGPGEVTVICCAGTAAISGPHEFTRLAGALRGIAPVRAVPQPGYEEGEPLPSSMAAVAAVQADAVIRTQGDKPFVVAGHSAGALMAYALATELLDRGHPPRGVVLIDVYPPGHQDAMNAWLEELTATLFDRETVRMDDTRLTALGAYDRLTGQWRPRETGLPTLLVSAGEPMGPWPDDSWKPTWPFEHDTVAVPGDHFTMVQEHADAIARHIDAWLGGGNSHHHHHH
diketide incorporation from acyl-ACP (product formation) [1]: all four acyl-ACP adducts were observed to be substrates for (5)M3+TE
diketide incorporation from acyl-ACP (product formation) [2]: all four acyl-ACP adducts were observed to be substrates for (5)M3+TE
diketide incorporation from acyl-ACP (product formation) [3]: all four acyl-ACP adducts were observed to be substrates for (5)M3+TE
diketide incorporation from acyl-ACP (product formation) [4]: all four acyl-ACP adducts were observed to be substrates for (5)M3+TE

B3: M3+TE (module 3 of DEBS with its own N-terminal linker and with the thioesterase fused to the C-terminus; plasmid pRSG34) (protein)
chain: MTDSEKVAEYLRRATLDLRAARQRIRELESDIAIVSMACRLPGGVNTPQRLWELLREGGETLSGFPTDRGWDLARLHHPDPDNPGTSYVDKGGFLDDAAGFDAEFFGVSPREAAAMDPQQRLLLETSWELVENAGIDPHSLRGTATGVFLGVAKFGYGEDTAAAEDVEGYSVTGVAPAVASGRISYTMGLEGPSISVDTACSSSLVALHLAVESLRKGESSMAVVGGAAVMATPGVFVDFSRQRALAADGRSKAFGAGADGFGFSEGVTLVLLERLSEARRNGHEVLAVVRGSALNQDGASNGLSAPSGPAQRRVIRQALESCGLEPGDVDAVEAHGTGTALGDPIEANALLDTYGRDRDADRPLWLGSVKSNIGHTQAAAGVTGLLKVVLALRNGELPATLHVEEPTPHVDWSSGGVALLAGNQPWRRGERTRRARVSAFGISGTNAHVIVEEAPEREHRETTAHDGRPVPLVVSARTTAALRAQAAQIAELLERPDADLAGVGLGLATTRARHEHRAAVVASTREEAVRGLREIAAGAATADAVVEGVTEVDGRNVVFLFPGQGSQWAGMGAELLSSSPVFAGKIRACDESMAPMQDWKVSDVLRQAPGAPGLDRVDVVQPVLFAVMVSLAELWRSYGVEPAAVVGHSQGEIAAAHVAGALTLEDAAKLVVGRSRLMRSLSGEGGMAAVALGEAAVRERLRPWQDRLSVAAVNGPRSVVVSGEPGALRAFSEDCAAEGIRVRDIDVDYASHSPQIERVREELLETTGDIAPRPARVTFHSTVESRSMDGTELDARYWYRNLRETVRFADAVTRLAESGYDAFIEVSPHPVVVQAVEEAVEEADGAEDAVVVGSLHRDGGDLSAFLRSMATAHVSGVDIRWDVALPGAAPFALPTYPFQRKRYWLQPAAPAAASDELAYRVSWTPIEKPESGNLDGDWLVVTPLISPEWTEMLCEAINANGGRALRCEVDTSASRTEMAQAVAQAGTGFRGVLSLLSSDESACRPGVPAGAVGLLTLVQALGDAGVDAPVWCLTQGAVRTPADDDLARPAQTTAHGFAQVAGLELPGRWGGVVDLPESVDDAALRLLVAVLRGGGRAEDHLAVRDGRLHGRRVVRASLPQSGSRSWTPHGTVLVTGAASPVGDQLVRWLADRGAERLVLAGACPGDDLLAAVEEAGASAVVCAQDAAALREALGDEPVTALVHAGTLTNFGSISEVAPEEFAETIAAKTALLAVLDEVLGDRAVEREVYCSSVAGIWGGAGMAAYAAGSAYLDALAEHHRARGRSCTSVAWTPWALPGGAVDDGYLRERGLRSLSADRAMRTWERVLAAGPVSVAVADVDWPVLSEGFAATRPTALFAELAGRGGQAEAEPDSGPTGEPAQRLAGLSPDEQQENLLELVANAVAEVLGHESAAEINVRRAFSELGLDSLNAMALRKRLSASTGLRLPASLVFDHPTVTALAQHLRICCAGTAAISGPHEFTRLAGALRGIAPVRAVPQPGYEEGEPLPSSMAAVAAVQADAVIRTQGDKPFVVAGHSAGALMAYALATELLDRGHPPRGVVLIDVYPPGHQDAMNAWLEELTATLFDRETVRMDDTRLTALGAYDRLTGQWRPRETGLPTLLVSAGEPMGPWPDDSWKPTWPFEHDTVAVPGDHFTMVQEHADAIARHIDAWHHHHHH
diketide incorporation from acyl-ACP (product formation) [1]: no product formation was observed from the incubation of any of the acyl-ACP adducts with (3)M3+TE
diketide incorporation from acyl-ACP (product formation) [2]: no product formation was observed from the incubation of any of the acyl-ACP adducts with (3)M3+TE
diketide incorporation from acyl-ACP (product formation) [3]: no product formation was observed from the incubation of any of the acyl-ACP adducts with (3)M3+TE
diketide incorporation from acyl-ACP (product formation) [4]: no product formation was observed from the incubation of any of the acyl-ACP adducts with (3)M3+TE
